This is an account of results in the supplement of paper PMC12764529.

± gives the half width of the 95% confidence interval.

Series [1] can be described thus: folding stability dG unfold from trypsin proteolysis; higher = more stable. The method, boiled down: (§1)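 Digests were run with trypsin and chymotrypsin at 11 concentrations in threefold dilutions, plus a no-protease condition, on designed mini-proteins in a PA-tagged cDNA display construct. The mini-proteins were under 80 residues, had no cysteine, and were kept only when AlphaFold2 dimer inter-PAE was above 15. After sequencing, Bayesian fitting of the counts gave K50, from which unfolding free energy was derived against a sequence-predicted unfolded-state K50 and a shared folded-state K50, per protease or combined.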

Series [2] can be described thus: folding stability dG unfold from chymotrypsin proteolysis; higher = more stable. In short, it runs like this:
as §1

Series [3] in a line: folding stability dG unfold (combined trypsin and chymotrypsin); higher = more stable. In short, it runs like this:
as §1

For the sequence “AAPEGAVVTFDDKEITVAPDETLYLVNGKLYTKSEIPAVLKQLSPETEYTELTVAGDTGEVETETKHIYRPS [r1_304_JUSTAS]”, the “folding stability dG unfold” value in series [1] is 0.867 ± 0.097 kcal/mol; in series [2], 1.51 ± 0.12 kcal/mol; in series [3], 1.25 ± 0.14 kcal/mol.

On to “ADFRVTEESPEGVVTQTTTVALPDGTSRTLTYSYSKDASLTSVTVSYTPDSVTTTTTPVTPVPPGSPELAGS [r1_53_JUSTAS]”, for which the “folding stability dG unfold” value in series [1] is -0.411 ± 0.17 kcal/mol; in series [2] it was 0.24 ± 0.19 kcal/mol; in series [3] it was 0.0981 ± 0.13 kcal/mol.

Turning to “ARELPVEEIREAVREFLRKHGFRVVSEEVVELPDGSVLVFVEAEPEDKSTRYRLVITRPVDGSVRLVIEPVS [r1_460_TrMRF]”, the “folding stability dG unfold” value in series [1] amounted to 2.66 ± 0.044 kcal/mol; in series [2], 3.588 ± 0.011 kcal/mol; in series [3] it was 3.283 ± 0.028 kcal/mol.

For “AVTVTVEPVGDALVVTVDLPRADGSPVRVVALFDPDGTVARVLVARSDPGPPRFVEVPAAPASDPVLLAAGS [r1_301_TrMRF]”, the figures for the “folding stability dG unfold” value in series [1], in series [2] and in series [3] were 0.23 ± 0.2 kcal/mol, 1.38 ± 0.14 kcal/mol and 0.993 ± 0.13 kcal/mol, respectively.

In the case of “DDWVTLPVEIWIPVRNPDGKPLTPEQVKETANSIRNELARNHGIDVEVDVKVEPVGPNGYYRINATVTIRPS [r1_231_TrROS]”, the “folding stability dG unfold” value in series [1] was 2.23 ± 0.1 kcal/mol; in series [2] it was 2.98 ± 0.055 kcal/mol; in series [3] it was 2.72 ± 0.14 kcal/mol.

Consider “DIDIETHPNGTILIKVPRNLLDEIKDILKENGYNVKITGIDPDWGYIRFPLKPVPPPPPKPSPEDAEEQGDS [r1_78_TrROS]”, for which the figures for the “folding stability dG unfold” value in series [1], in series [2] and in series [3] were 1.76 ± 0.082 kcal/mol, 2.14 ± 0.041 kcal/mol and 1.89 ± 0.14 kcal/mol, respectively.

For “DMEPEPFTIELPNVKIEVQVYRTPNKLSVNAPIEFPNGKNLTISFKYEPTPDGIKLEISIMIPKKAIEKLLS [r1_153_TrROS]”, the “folding stability dG unfold” value in series [1] is 2.33 ± 0.097 kcal/mol; in series [2] it was 3.44 ± 0.1 kcal/mol; in series [3], 3.1 ± 0.3 kcal/mol.

Turning to “DRIEIDVEMYDGYFYKIEIRWPGNGEPRELMFPGSLSEAKDFAEDLIQEQHPGAPVDEIDVEPVPMPPGDFS [r1_80_TrROS]”, the entries for the “folding stability dG unfold” value in series [1], in series [2] and in series [3] were 0.683 ± 0.2 kcal/mol, 2.01 ± 0.05 kcal/mol and 1.69 ± 0.19 kcal/mol, respectively.

For “DYKIKIPVARFPDGYWYIRAEIEDPDGETHEYEYPIPMPPGDTFDIDLPEDEPYKIKKIWIYHNGKPQPITS [r1_70_TrROS]”, the “folding stability dG unfold” value in series [1] stood at 0.922 ± 0.11 kcal/mol; in series [2] it was 1.36 ± 0.15 kcal/mol; in series [3], 1.16 ± 0.16 kcal/mol.

Take “EEIIEKLKEEGYEIVSVSIKEVNGKKKIFIAVRRKDKPEYLLVEIDLENKEVKIKKVKKFPKGESIEDILSS [r1_383_TrROS_Hall]”: the results for the “folding stability dG unfold” value in series [1], in series [2] and in series [3] were 2.95 ± 0.2 kcal/mol, 3.98 ± 0.23 kcal/mol and 3.56 ± 0.27 kcal/mol, respectively.

Regarding “EKALEAARELARKLAEELGVEVEVRVKKVSVLNENGELIAEVEVEITVRPLPPPVVEEEEVEEEEVEFEEES [r1_318_TrROS_Hall]”, the “folding stability dG unfold” value in series [1] worked out at 1.82 ± 0.1 kcal/mol; in series [2] it was 2.18 ± 0.17 kcal/mol; in series [3] it was 1.99 ± 0.23 kcal/mol.

Take “FEELRNLPGLSLTPLAEEGEVRVYRLSLPPSVLAARGLPGVTVTVTVFPDGSYTVLPDDVPALEAAGLVVES [r1_256_JUSTAS]”: the entries for the “folding stability dG unfold” value in series [1], in series [2] and in series [3] were 1.05 ± 0.02 kcal/mol, 2.43 ± 0.037 kcal/mol and 2.03 ± 0.045 kcal/mol, respectively.

For the sequence “FRFTIPLPDGKKIIIDYRPMPDGNYMFDVKLQLPNGKERTIPIMVPREEFPGMPMEEMAETMVKEALKKLKS [r1_92_TrROS]”, the “folding stability dG unfold” value was 2.63 ± 0.15 kcal/mol in series [1], 3.4 ± 0.13 kcal/mol in series [2] and 3.3 ± 0.26 kcal/mol in series [3].

Consider “FTMDEMKELADNIADNLAKEDGYKIKSVNIDATIPIPVYMKVRPDPNGEPRWEMHWMPIKVKINVEIKPPNS [r1_91_TrROS]”, for which the results for the “folding stability dG unfold” value in series [1], in series [2] and in series [3] were 2.02 ± 0.18 kcal/mol, 2.55 ± 0.09 kcal/mol and 2.55 ± 0.36 kcal/mol, respectively.

Regarding “GEERTFSLWVKTKSPQEARQLQEKIKDILRGPGYEVKIDDVEVSPNGWMKVNITMRPGMPQDRLRDALRKIS [r1_485_TrROS]”, the “folding stability dG unfold” value in series [1] was 3.93 ± 0.082 kcal/mol; in series [2], 5.24 ± 0.06 kcal/mol; in series [3], 4.99 ± 0.07 kcal/mol.

Turning to “GMMPEVKEYEVVVEVSLSDPSFASMTPEELAERAVAEVAAKPDFDPVEVEILSVKELPDGTYVVKVRITVRS [r1_484_JUSTAS]”, the “folding stability dG unfold” value in series [1] was 4.48 ± 0.2 kcal/mol; in series [2], 3.15 ± 0.12 kcal/mol; in series [3], 3.91 ± 0.14 kcal/mol.

Take “GPSPVSVSTSTSTSLSTVGNTPVLVTTTTTTTTTLSPDPTDPSVTTTTTTTTTTTTVYDPANGKPLSTTTSS [r1_406_JUSTAS]”: the results for the “folding stability dG unfold” value in series [1], in series [2] and in series [3] were 1.83 ± 0.079 kcal/mol, 1.86 ± 0.059 kcal/mol and 1.83 ± 0.14 kcal/mol, respectively.
